Columns and labels:
Format in all cases: biochemical
[1] = Km and kcat of recombinant purified enzyme for phenylalanine; conditions: purified His-tag enzyme
Description: (§1) [Measurement of Enzyme Activity of Escherichia coli Recombinant Purified Enzyme]
(§2) Escherichia coli was inoculated into 5 ml of LB medium containing 100 mg/L ampicillin sodium or 100 mg/L kanamycin sulfate, and cultured overnight at 37° C. It was then used to inoculate 200 ml of the same culture medium and cultured to an O.D of 0.6, IPTG was added to a final concentration of 0.5 mM, and the incubation was continued for 12 hours at 28° C. The rotational speed during cultures was 120 rpm. The cultured cells were collected and suspended in 20 mM potassium phosphate buffer (pH 7.5) and subjected to ultrasonic disruption, and after centrifugal separation, the supernatant was purified using a His-Trap column and the enzyme activity was measured. The method of measuring the enzyme activity was according to the method for the crude extract described above.
(§3) Since pET28AtPAL4 and its mutants and RgPAL were produced as fusion proteins with His-tag in the Escherichia coli of Example 3, these enzymes could be easily purified using an affinity column. After culturing the producing cells, the cells were collected, disrupted and purified. The purified enzymes were used to calculate the Km values and kcat values.

[2] = Km and kcat of recombinant purified enzyme for 4-aminophenylalanine; conditions: purified His-tag enzyme
Description: as §1, §2, §3

[3] = 4APAL activity of Escherichia coli recombinant enzyme crude extract; conditions: crude extract, NST37(DE) host, 20 mM 4-aminophenylalanine
Description: (§4) [Measurement of Enzyme Activity of Escherichia coli Recombinant Enzyme Crude Extract]
(§5) Escherichia coli was inoculated into 5 ml of LB medium containing 100 mg/L ampicillin sodium or 100 mg/L kanamycin sulfate, and cultured overnight at 37° C. It was then inoculated into 200 ml of the same culture medium and cultured to an O.D. of 0.6, isopropyl-β-thiogalactopyranoside (IPTG) was added to a final concentration of 0.5 mM, and culturing was conducted for 12 hours at 28° C.
(§6) The cultured cells were collected and suspended in 20 mM potassium phosphate buffer (pH 7.5) and subjected to ultrasonic disruption and the supernatant was used as a crude extract for activity measurement. The enzyme activity was measured and quantified by measuring the absorbance at the absorption wavelength of the reaction product using a spectrophotometer, for a period of 5 minutes. For PAL activity, the crude extract was added to 100 mM Tris Buffer (pH 8.0) and 20 mM phenylalanine, reaction was conducted, and production of cinnamic acid was measured by the change in absorbance at a wavelength of 290 nm, while for 4APAL activity, 20 mM 4-aminophenylalanine was used as substrate and the absorbance at a wavelength of 315 nm due to 4-aminocinnamic acid was measured and quantified.

[4] = PAL activity of Escherichia coli recombinant enzyme crude extract; conditions: crude extract, NST37(DE) host, 20 mM phenylalanine
Description: as §4, §5, §6

For “AtPAL4: PAL derived from the plant Arabidopsis thaliana, amino acid sequence SEQ ID NO: 4”, the “Kcat value, Phenylalanine” value [1] was 5.1 s⁻¹, the “Kcat value, 4-Aminophenylalanine” value [2] was >0.40 s⁻¹ and the Km [2] was > 40 mM. It also gave a 4APAL activity [3] of 0.012 µmol/min/mg and a PAL activity [4] of 0.18 µmol/min/mg.

Reference: patent US10053716B2, “4-amino cinnamic acid production method using enzyme” (JAPAN SCIENCE AND TECHNOLOGY AGENCY, priority 2014, dated 2018)
